Assay results as given in article PMC7185567.

Key:
[1] = target: APE1 (apurinic/apyrimidinic endonuclease 1) (human, UniProt P27695 1-318); test: EMSA
ISY1 = target: T1, ISY1 (human, UniProt Q9ULR0 1-285); test: EMSA
T1 sequence: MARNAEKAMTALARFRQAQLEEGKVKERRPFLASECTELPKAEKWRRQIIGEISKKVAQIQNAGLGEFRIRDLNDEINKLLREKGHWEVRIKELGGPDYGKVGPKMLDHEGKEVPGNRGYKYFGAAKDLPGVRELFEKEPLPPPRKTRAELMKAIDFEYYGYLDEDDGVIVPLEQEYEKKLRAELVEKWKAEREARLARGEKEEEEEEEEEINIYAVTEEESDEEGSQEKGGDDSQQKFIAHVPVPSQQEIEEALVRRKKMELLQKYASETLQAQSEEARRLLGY

Chain of APE1 (apurinic/apyrimidinic endonuclease 1) (P27695 whole entry): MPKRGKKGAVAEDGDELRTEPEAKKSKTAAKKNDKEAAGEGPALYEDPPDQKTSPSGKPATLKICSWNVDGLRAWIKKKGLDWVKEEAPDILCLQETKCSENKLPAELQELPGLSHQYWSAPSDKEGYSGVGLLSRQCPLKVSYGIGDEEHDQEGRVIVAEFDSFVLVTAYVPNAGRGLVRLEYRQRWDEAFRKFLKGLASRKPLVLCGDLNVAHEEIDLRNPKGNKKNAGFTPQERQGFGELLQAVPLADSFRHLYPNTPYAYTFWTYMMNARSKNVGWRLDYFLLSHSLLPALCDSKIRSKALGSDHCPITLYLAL

B1: 37-mer control DNA duplex (no AP site) (dsDNA)
DNA 1: CCTGCAGCTGGTGCAAAAGTATTGCGGCGTGTACGGT
DNA 2: ACCGTACACGTTTCCTTACGGGGTCACCAGCTGCAGG
[1]
  binding result: no binding
ISY1
  binding result: no binding
